The results in this text go back to article PMC12631311, “Molecular Insights into IAHSP: Influence of the R1611W Mutation on the VPS9 Domain of Alsin” (ACS Omega, 2025).

Substitutions are numbered along the chain they refer to. Names and notes keep the numbering of the source. Values joined by “and” are separate entries in the source; they are usually repeats but may differ in a detail not shown here. Identical values can stand only once.

The data set concerns the molecule itself. As to the kind of experiment: SEC; Superdex 200 Increase 10/300 GL, 50 mM potassium phosphate pH 8.0, 150 mM NaCl, 0.5 mL/min, room temperature; 310 ug VPS9 WT or 270 ug VPS9 R1611W injected; apparent molecular weights from column calibration. In general terms: SEC sorts molecules by how far they enter the pores of the column.

B1: human alsin VPS9 WT (C1551S/C1558S/C1647S) (domain or fragment, UniProt Q96Q42 1513-1657, looked up)
chain: KQPDIALLGFLGVQRKFWPATLSILGESKKVLPTTKDASFASAVESLQQISTTFTPSDKLKVIQQTFEEISQSVLASLHEDFLWSMDDLFPVFLYVVLRARIRNLGSEVHLIEDLMDPYLQHGEQGIMFTTLKASYYQIQREKLN
notes: alsin, human, VPS9 domain, residues 1513-1657 of UniProt Q96Q42, with three Cys to Ser changes in the construct called WT; Cloned in pET28b between NdeI and EcoRI; No cleavage of the tag is described; The N-terminal position is read from the forward primer (thrombin site before the ATG); The printed monomer mass of 16.6 kDa fits the domain without the tag; also called wild-type VPS9 domain
In the case of B1, the stoichiometry N (usually a count of units in the complex or per binding partner) came out at 4.

B2: human alsin VPS9 R1611W mutant (domain or fragment, UniProt Q96Q42 1513-1657, looked up)
chain: B1 chain with R99W
notes: alsin, human, VPS9 domain, residues 1513-1657 of UniProt Q96Q42; The pathological R1611W mutation was inserted by site-directed mutagenesis into the VPS9 WT (C1551S/C1558S/C1647S) construct; Same construct and tag as m1 with R1611W added; also called VPS R1611W
As for B2, the “stoichiometry N” value is 4 and 6.
